The values below come from PMC10776578, “Epstein-Barr virus-driven B cell lymphoma mediated by a direct LMP1-TRAF6 complex” (Nature Communications, 2024).

One may read the Kd as the equilibrium constant for the complex coming apart. By IC50 is commonly meant the concentration at which inhibition is half-maximal. Lower therefore signals greater potency.

Sequences and labels used below:
B5: His-TRAF6_(310-522) (domain or fragment)
chain: DHQIRELTAKMETQSMYVSELKRTIRTLEDKVAEIEAQQCNGIYIWKIGNFGMHLKCQEEEKPVVIHSPGFYTGKPGYKLCMRLHLQLPTAQRCANYISLFVHTMQGEYDSHLPWPFQGTIRLTILDQSEAPVRQNHEEIMDAKPELLAFQRPTIPRNPKGFGYVTFMHLEALRQRTFIKDDTLLVRCEVSTRFDMGSLRREGFQPRSTDAGV
notes: also called His-T6; recombinant TRAF6 wild-type; source: E. coli BL21 Codon Plus RIPL, purified (Ni-NTA)
B9: GST-LMP1_(181-386) (domain or fragment)
chain: LIWMYYHGQRHSDEHHHDDSLPHPQQATDDSGHESDSNSNEGRHHLLVSGAGDGPPLCSQNLGAPGGGPDNGPQDPDNTDDNGPQDPDNTDDNGPHDPLPQDPDNTDDNGPQDPDNTDDNGPHDPLPHSPSDSAGNDGGPPQLTEEVENKGGDQGPPLMTDGGGGHSHDSGHGGGDPHLPTLLLGSSGSGGDDDDPHGPVQLSYYD
notes: also called LMP1 wild-type; LMP1 signalling domain; source: E. coli DH5α or BL21 Codon Plus RIPL, purified (glutathione Sepharose 4B)

Where two headings read alike, the source gives them in different places.

One test addresses T1, TRAF6_(346-504) for NMR (human, UniProt Q9Y4K3 346-504, uniformly labeled with 15N).
T1 construct: also called 15N-labeled TRAF6; source: E. coli Rosetta2 DE3, purified (Ni-NTA, SUMO cleavage, second Ni-NTA, SEC)
T1 sequence: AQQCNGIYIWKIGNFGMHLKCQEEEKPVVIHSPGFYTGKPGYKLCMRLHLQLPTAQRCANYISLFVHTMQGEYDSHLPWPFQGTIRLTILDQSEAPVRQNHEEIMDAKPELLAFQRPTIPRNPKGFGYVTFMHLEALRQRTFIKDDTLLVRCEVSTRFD
Put plainly: NMR titration. Particulars: both partners purified.

The target in test [1] is T2, His-TRAF6_(310-522) (human, UniProt Q9Y4K3 310-522).
T2 chain: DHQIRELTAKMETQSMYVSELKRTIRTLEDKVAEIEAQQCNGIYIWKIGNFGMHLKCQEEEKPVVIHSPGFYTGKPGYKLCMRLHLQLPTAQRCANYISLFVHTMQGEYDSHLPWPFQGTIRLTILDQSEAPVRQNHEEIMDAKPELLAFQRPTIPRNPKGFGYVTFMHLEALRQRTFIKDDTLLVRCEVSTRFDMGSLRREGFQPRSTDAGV

The target in test [2] is T2, His-TRAF6_(310-522). Put plainly: competition with GST-CD40(216-277).
Test [3] concerns the target B5. Put plainly: AlphaScreen or HTRF; AlphaScreen PPI assay in competition: GST-LMP1 or GST-CD40 with His-TRAF6 (dose-response of TRAF6 inhibitor or control peptide, 4-parameter fit) or GST-LMP1 with His-TRAF2 (30 µM peptide). Particulars: both partners purified. A general note: Alpha assays give light when donor and acceptor beads are brought close together.
The test “GST-LMP1_(181-386)” has as its target B9. Put plainly: pull-down. To be noted: both partners purified.
Another test addresses T3, GST-LMP1_(181-386) Y384D (Epstein-Barr virus, UniProt P03230 181-386, Y384D).
T3 construct: also called LMP1 Y384D; source: E. coli DH5α or BL21 Codon Plus RIPL, purified (glutathione Sepharose 4B)
T3 sequence: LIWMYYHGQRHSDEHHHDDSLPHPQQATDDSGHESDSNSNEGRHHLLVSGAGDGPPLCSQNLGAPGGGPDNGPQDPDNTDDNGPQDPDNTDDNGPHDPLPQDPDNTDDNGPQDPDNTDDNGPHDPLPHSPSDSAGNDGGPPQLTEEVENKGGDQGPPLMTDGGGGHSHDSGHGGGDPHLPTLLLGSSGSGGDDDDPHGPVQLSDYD
The test can be described thus: AlphaScreen or HTRF; AlphaScreen PPI assay: His-TRAF and GST-LMP1, GST-CD40 or GST-RANK in PBS with 0.5% BSA and 0.1% Tween-20, 1 h at RT; standard 300 nM His-TRAF and 100 nM GST protein if not indicated otherwise; for KD His-TRAF6 at different concentrations, fit one site-specific binding with hill slope. To be noted: both partners purified.

Another test deals with T4, GST-RANK_(314-355) E346Q (human, UniProt Q9Y6Q6 314-355, E346Q).
T4 construct: also called RANK E346Q; E to Q mutation at P0 of RANK; source: E. coli DH5α or BL21 Codon Plus RIPL, purified (glutathione Sepharose 4B)
T4 chain: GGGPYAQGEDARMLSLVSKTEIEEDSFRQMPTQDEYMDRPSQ
The description is as above. Particulars: both partners purified.

Test [4] concerns the target T5, GST-CD40_(216-277) E235Q (human, UniProt P25942 216-277, E235Q).
T5 construct: also called CD40 E235Q; E to Q mutation at P0 of CD40; source: E. coli DH5α or BL21 Codon Plus RIPL, purified (glutathione Sepharose 4B)
T5 sequence: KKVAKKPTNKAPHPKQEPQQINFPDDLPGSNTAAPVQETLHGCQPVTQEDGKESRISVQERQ
The test is described as above. Particulars: both partners purified.

The target in test [5] is GST-CD40_(216-277) E235Q (human, UniProt P25942 216-277, E235Q).
In test [6] the target is B5. The test can be described thus: peptide or protein array; peptides spot-synthesised on cellulose membranes in duplicate, incubated with 10 µg per mL purified His-TRAF6 or His-TRAF2 in PBST with 5% milk powder for 4 h at RT; detection by TRAF-specific antibodies. Particulars: both partners purified.
In test [7] the target is B5. The test can be described thus: AlphaScreen or HTRF; AlphaScreen PPI assay: His-TRAF and GST-LMP1, GST-CD40 or GST-RANK in PBS with 0.5% BSA and 0.1% Tween-20, 1 h at RT; standard 300 nM His-TRAF and 100 nM GST protein if not indicated otherwise; for KD His-TRAF6 at different concentrations, fit one site-specific binding with hill slope. To be noted: both partners purified.

Test [8] has as its target T6, His-TRAF6_(310-522) R392A (human, UniProt Q9Y4K3 310-522, R392A).
T6 construct: also called TRAF6 R392A; source: E. coli BL21 Codon Plus RIPL, purified (Ni-NTA)
T6 sequence: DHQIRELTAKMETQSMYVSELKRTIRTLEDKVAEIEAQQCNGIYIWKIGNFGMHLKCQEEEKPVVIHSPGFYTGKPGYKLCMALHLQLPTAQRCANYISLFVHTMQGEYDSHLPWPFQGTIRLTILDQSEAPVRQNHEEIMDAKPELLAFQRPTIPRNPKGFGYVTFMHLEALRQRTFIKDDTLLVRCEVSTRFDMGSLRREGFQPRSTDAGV
Described as above. To be noted: both partners purified.

Test [9] concerns the target T7, His-TRAF6_(310-522) K469A (human, UniProt Q9Y4K3 310-522, K469A).
T7 construct: also called TRAF6 K469A; source: E. coli BL21 Codon Plus RIPL, purified (Ni-NTA)
T7 sequence: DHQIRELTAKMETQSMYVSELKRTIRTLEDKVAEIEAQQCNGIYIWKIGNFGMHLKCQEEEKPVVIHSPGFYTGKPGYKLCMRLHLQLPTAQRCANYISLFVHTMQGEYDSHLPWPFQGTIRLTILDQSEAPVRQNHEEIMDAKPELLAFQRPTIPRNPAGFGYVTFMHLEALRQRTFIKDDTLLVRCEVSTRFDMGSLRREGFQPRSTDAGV
The test is described as above. To be noted: both partners purified.

B1: LMP1 peptide G378PVQLSYYD (peptide)
peptide: GPVQLSYYD
notes: source: unlabeled peptide (PSL)
Turning to B1, in the test with TRAF6_(346-504) for NMR, the binding result is reported as “binds”.

B2: GST-RANK_(314-355) E346Q (domain or fragment)
chain: GGGPYAQGEDARMLSLVSKTEIEEDSFRQMPTQDEYMDRPSQ
In turn, B2 registered a Kd with His-TRAF6_(310-522) [1] of 15.6 nM.

B3: TRAF6 inhibitor peptide DRQIKIWFQNRRMKWKK-RKIPTEDEY (peptide)
peptide: DRQIKIWFQNRRMKWKKRKIPTEDEY
notes: also called RANK-derived peptide; source: bought: Novus Biologicals NBP2-26506
As to B3, the IC50 in the test with His-TRAF6_(310-522) [2] turned out to be 546 nM; with His-TRAF6_(310-522) [3], 177 nM.

B4: His-TRAF1_(226-416) (domain or fragment)
chain: RERILSLEQRVVELQQTLAQKDQALGKLEQSLRLMEEASFDGTFLWKITNVTRRCHESACGRTVSLFSPAFYTAKYGYKLCLRLYLNGDGTGKRTHLSLFIVIMRGEYDALLPWPFRNKVTFMLLDQNNREHAIDAFRPDLSSASFQRPQSETNVASGCPLFFPLSKLQSPKHAYVKDDTMFLKCIVETST
notes: source: E. coli BL21 Codon Plus RIPL, purified (Ni-NTA)
Take B4: the binding result with GST-LMP1_(181-386) is recorded as “binds”.

B5: the “fold reduction of affinity against wild-type LMP1” value with GST-LMP1_(181-386) Y384D is 1.8 fold. For the same molecule, the “factor of reduction of affinity against wild-type RANK” value in the test with GST-RANK_(314-355) E346Q was found to be 2 fold. Besides, the “factor of reduction of affinity against wild-type CD40” value with GST-CD40_(216-277) E235Q [4] came to 4.3 fold. In the test with GST-CD40_(216-277) E235Q [5], this molecule showed a Kd of 73.9 nM.

B6: LMP1-derived CTAR2 peptide 11 (amino acids 357-386, 30mer) (peptide)
peptide: PHLPTLLLGSSGSGGDDDDPHGPVQLSYYD
notes: source: synthetic peptide, spot-synthesised on cellulose membrane
With B6, in the test with His-TRAF6_(310-522) [6], the binding result is given as “binds”.

B7: GST-CD40_(216-277) (domain or fragment)
chain: KKVAKKPTNKAPHPKQEPQEINFPDDLPGSNTAAPVQETLHGCQPVTQEDGKESRISVQERQ
notes: source: E. coli DH5α or BL21 Codon Plus RIPL, purified (glutathione Sepharose 4B)
B7: binding with His-TRAF6_(310-522) [7] was characterised by a dissociation constant (Kd) of 17.1 nM. Besides, the binding result in [8] and in test [9] was “binds” each time.

B8: LMP1-derived CTAR2 peptide 8 (amino acids 371-386, 16mer) (peptide)
peptide: GDDDDPHGPVQLSYYD
notes: as for B6
Take B8: the binding result in the test with His-TRAF6_(310-522) [6] was “binds”.

In the case of B9, the Kd with His-TRAF6_(310-522) [7] is 73.2 nM. Moreover, the binding result in [9] was “binds”.

B10: His-TRAF5_(363-557) (domain or fragment)
chain: DQRLAVLEEETNKHDTHINIHKAQLSKNEERFKLLEGTCYNGKLIWKVTDYKMKKREAVDGHTVSIFSQSFYTSRCGYRLCARAYLNGDGSGRGSHLSLYFVVMRGEFDSLLQWPFRQRVTLMLLDQSGKKNIMETFKPDPNSSSFKRPDGEMNIASGCPRFVAHSVLENAKNAYIKDDTLFLKVAVDLTDLEDL
notes: as for B4
Turning to B10, in the test with GST-LMP1_(181-386), the binding result was “binds”.
